Key:
[1] = system: RdhK Hybrid A (Desulfitobacterium hafniense DCB-2 (chimera)); test: EMSA; settings: 200 uM Cl-OHPA; EMSA: 100 ng DNA, 2 uM protein, 200 uM effector, 15 uL; buffer 100 mM Tris-HCl pH 8.5, 40% glycerol, 10 mM MgCl2, 500 mM NaCl, 5 mM EDTA, 10 mM DTT …
[2] = system: RdhK Hybrid B (Desulfitobacterium hafniense DCB-2 (chimera)); test: EMSA; settings: 200 uM Cl-OHPA; EMSA: 100 ng DNA, 2 uM protein, 200 uM effector, 15 uL; buffer 100 mM Tris-HCl pH 8.5, 40% glycerol, 10 mM MgCl2, 500 mM NaCl, 5 mM EDTA, 10 mM DTT …

Row | Sequence | binding signal [1] | binding signal [2]
1 | GAATTCTCAGGCGATGTAACCGCTTTCAAAGTTAATACACATTAATACTCTTAACAATGTGATAGCTATGATTGCACCG (double strand) [mgl-DB7] | 90 % DNA bound | –
2 | GAATTCTCAGGCGATGTAACCGCTTTCAAATTTAGTATACGCTAAATATCTTAACAATGTGATAGCTATGATTGCACCG (double strand) [mgl-DB8] | 100 % DNA bound | 100 % DNA bound
